Patent publication US20110195911A1, “SYNTHETIC ANALOGS OF THE JUXTAMEMBRANE DOMAIN OF IGF1R AND USES THEREOF” (THE UNITED STATES OF AMERICA,AS REPRESENTED BY THE …, priority 2008, published 2011)
Where a SMILES comes first, the peptide text is derived from it. Where no end group is shown, it is not given here. [ ]: non-standard residue; d: D form. The star is where a group is joined. Palmitoyl = CCCCCCCCCCCCCCCC(=O)*

What was measured:
[1] = tested on: MCF-7 breast cancer cells; assay: MTT cell toxicity assay in MCF-7 breast cancer cells; assay type: cell-based; conditions: MCF-7 cells, MTT
How it was run: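 MCF-7 cells seeded in 1% FBS medium, grown 24 h, then exposed to compounds at 0.1, 0.5, 2.5 or 5.0 μM (final, 0.5% FBS) for 48 h. MTT absorbance at 544 nm; growth relative to time-zero and untreated controls gave GI50 (50% growth inhibition) and TGI (zero net growth).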

breast cancer cell lines = assay: Alternative potency assay (MTT, serum-free, IGF-1 added) in cancer cell lines, FIG. 1; assay type: cell-based; conditions: breast cancer cell lines (MCF-7, T47D), IGF-1 10 ng/mL
Description: An alternative potency assay was used to test compounds in MCF-7 (breast cancer), T47D (breast cancer), Colo 205 (colon cancer), JM-1 (rat hepatoma), Sk MeI-2 (melanoma), PLC (human hepatoma), and HepG2 (human hepatoma) cells. Cells were suspended at a concentration of approximately 5000 cells per 100 μL of suspension in a 5% FBS RPMI medium. The cells were seeded into 96-count wells and incubated over night. After one day's incubation, the 5% FBS medium was aspirated and replaced with 100 μL of no serum RPMI medium containing 1 mg Bovine Serum Albumin (BSA) per 1 mL RPMI. Various concentrations of the test compounds were prepared by dilution in no-serum medium containing 1 mg BSA/mL. […] Absorbance of the wells at 544 nm was determined by a FLUOstar/POLARstar Galaxy (BMG Lab Technologies GmbH) microplate reader. The activity was calculated from the data using the formula: 100×[(T−T0)/(C−T0)] for T>T0 and 100×[(T−T0)/T0] for T<T0, wherein T0 corresponds to cell density at the time of drug addition, “T” is the optical density of the test well after a 48-h period of exposure to test drug, and “C” is the control optical density. […]

[2] = molecular target: Insulin-like growth factor 1 receptor (IGF1R) (UniProt P08069 31-1367, limits assumed); assay: cell-based or functional assay
Insulin-like growth factor 1 receptor (IGF1R), sequence (P08069 31-1367 limits assumed): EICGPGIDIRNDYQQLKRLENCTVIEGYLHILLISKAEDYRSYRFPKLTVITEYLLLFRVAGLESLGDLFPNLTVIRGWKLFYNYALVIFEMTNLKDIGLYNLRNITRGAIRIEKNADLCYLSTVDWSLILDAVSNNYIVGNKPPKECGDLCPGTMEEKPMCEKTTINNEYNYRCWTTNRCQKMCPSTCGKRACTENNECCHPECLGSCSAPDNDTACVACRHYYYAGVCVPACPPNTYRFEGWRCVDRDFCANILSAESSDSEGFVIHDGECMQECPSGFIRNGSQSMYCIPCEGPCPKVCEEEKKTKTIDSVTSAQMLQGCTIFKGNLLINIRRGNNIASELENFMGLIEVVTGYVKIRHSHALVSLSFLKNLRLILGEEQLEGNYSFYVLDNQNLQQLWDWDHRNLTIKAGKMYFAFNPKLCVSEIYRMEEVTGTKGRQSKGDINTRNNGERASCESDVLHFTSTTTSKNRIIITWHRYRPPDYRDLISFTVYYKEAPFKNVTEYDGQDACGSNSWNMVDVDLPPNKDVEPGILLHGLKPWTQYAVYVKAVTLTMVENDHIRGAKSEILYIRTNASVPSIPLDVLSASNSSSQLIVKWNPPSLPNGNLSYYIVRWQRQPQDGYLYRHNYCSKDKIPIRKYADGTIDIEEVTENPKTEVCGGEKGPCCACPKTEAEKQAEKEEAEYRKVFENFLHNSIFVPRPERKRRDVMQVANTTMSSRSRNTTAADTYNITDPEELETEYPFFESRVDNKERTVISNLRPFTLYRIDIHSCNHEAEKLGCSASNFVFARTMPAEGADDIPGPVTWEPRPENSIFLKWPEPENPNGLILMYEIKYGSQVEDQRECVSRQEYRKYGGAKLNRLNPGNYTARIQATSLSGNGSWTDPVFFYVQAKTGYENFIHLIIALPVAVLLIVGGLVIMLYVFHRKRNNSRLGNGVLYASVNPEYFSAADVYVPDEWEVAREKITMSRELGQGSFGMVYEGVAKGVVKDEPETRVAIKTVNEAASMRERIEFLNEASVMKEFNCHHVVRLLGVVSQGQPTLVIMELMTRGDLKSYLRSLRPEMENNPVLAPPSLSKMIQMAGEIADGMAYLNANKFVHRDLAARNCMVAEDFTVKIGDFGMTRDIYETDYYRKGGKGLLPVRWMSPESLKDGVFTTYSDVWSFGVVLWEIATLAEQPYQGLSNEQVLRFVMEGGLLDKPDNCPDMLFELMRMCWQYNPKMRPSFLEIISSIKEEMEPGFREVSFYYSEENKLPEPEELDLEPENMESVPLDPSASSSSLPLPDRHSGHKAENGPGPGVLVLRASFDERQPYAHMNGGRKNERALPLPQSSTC

Molecule: CCCCCCCCCCCCCCCC(=O)N[C@@H](Cc1c[nH]cn1)C(=O)N[C@@H](CCCNC(=N)N)C(=O)N[C@@H](CCCCN)C(=O)N[C@@H](CCCNC(=N)N)C(=O)N[C@@H](CC(N)=O)C(=O)N[C@@H](CC(N)=O)C(=O)N[C@@H](CO)C(=O)N[C@@H](CCCNC(=N)N)C(=O)N[C@@H](CC(C)C)C(=O)NCC(=O)N[C@@H](CC(N)=O)C(=O)NCC(=O)N[C@H](C(=O)N[C@@H](CC(C)C)C(=O)N[C@@H](Cc1ccc(O)cc1)C(N)=O)C(C)C [Peptide 9, Pal-HRKRNNSRLGNGVLY-NH2] (Palmitoyl-HRKRNNSRLGNGVLY-NH2)
- GI50 ([1]; final 0.5% FBS, two days with compound): 1650 ± 100 nM
- TGI ([1]; final 0.5% FBS, two days with compound, concentration of total growth inhibition (cytostatic)): >5000 nM
- growth inhibition / potency in MCF-7 cells (in words) ([1]; comparison with related peptides): did not improve the degree of folding or the potency
- cell-growth inhibitory properties (breast cancer cell lines): significant cell-growth inhibitory properties

B1: peptide 20 (Pal-RLGNGVLY-NH2) (peptide)
peptide: Palmitoyl-RLGNGVLY-NH2
SMILES: CCCCCCCCCCCCCCCC(=O)N[C@@H](CCCNC(=N)N)C(=O)N[C@@H](CC(C)C)C(=O)NCC(=O)N[C@@H](CC(N)=O)C(=O)NCC(=O)N[C@H](C(=O)N[C@@H](CC(C)C)C(=O)N[C@@H](Cc1ccc(O)cc1)C(N)=O)C(C)C
- GI50 (µM), MTT assay, MCF-7 cells [2]: 0.2 µM
- TGI (µM), MTT assay, MCF-7 cells [2]: > 5 µM

B2: peptide 33 (Pal-RNNSRLGNGVLYA-NH2) (peptide)
peptide: Palmitoyl-RNNSRLGNGVLYA-NH2
modifications: not fully specified; printed as Pal-RNNSRLGNGVLYA-NH2
- GI50 (µM), MTT assay, MCF-7 cells [2]: 0.1 µM
- TGI (µM), MTT assay, MCF-7 cells [2]: > 5 µM

B3: peptide 30 (Pal-RNNSRLGNGVL-NH2) (peptide)
peptide: Palmitoyl-RNNSRLGNGVL-NH2
SMILES: CCCCCCCCCCCCCCCC(=O)N[C@@H](CCCNC(=N)N)C(=O)N[C@@H](CC(N)=O)C(=O)N[C@@H](CC(N)=O)C(=O)N[C@@H](CO)C(=O)N[C@@H](CCCNC(=N)N)C(=O)N[C@@H](CC(C)C)C(=O)NCC(=O)N[C@@H](CC(N)=O)C(=O)NCC(=O)N[C@H](C(=O)N[C@@H](CC(C)C)C(N)=O)C(C)C
- GI50 (µM), MTT assay, MCF-7 cells [2]: 1.7 µM
- TGI (µM), MTT assay, MCF-7 cells [2]: 3.7 µM

B4: peptide 34 (Pal-RNNSRLGNGVLYAS-NH2) (peptide)
peptide: Palmitoyl-RNNSRLGNGVLYAS-NH2
modifications: not fully specified; printed as Pal-RNNSRLGNGVLYAS-NH2
- GI50 (µM), MTT assay, MCF-7 cells [2]: 0.04 µM
- TGI (µM), MTT assay, MCF-7 cells [2]: > 5 µM

B5: peptide 29 (Pal-RNNSRLGNGVLF-NH2) (peptide)
peptide: Palmitoyl-RNNSRLGNGVLF-NH2
SMILES: CCCCCCCCCCCCCCCC(=O)N[C@@H](CCCNC(=N)N)C(=O)N[C@@H](CC(N)=O)C(=O)N[C@@H](CC(N)=O)C(=O)N[C@@H](CO)C(=O)N[C@@H](CCCNC(=N)N)C(=O)N[C@@H](CC(C)C)C(=O)NCC(=O)N[C@@H](CC(N)=O)C(=O)NCC(=O)N[C@H](C(=O)N[C@@H](CC(C)C)C(=O)N[C@@H](Cc1ccccc1)C(N)=O)C(C)C
- GI50 (µM), MTT assay, MCF-7 cells [2]: 0.1 µM
- TGI (µM), MTT assay, MCF-7 cells [2]: 1.2 µM

B6: peptide 35 (Pal-RNNSRLGNGVLYASV-NH2) (peptide)
peptide: Palmitoyl-RNNSRLGNGVLYASV-NH2
modifications: not fully specified; printed as Pal-RNNSRLGNGVLYASV-NH2
- GI50 (µM), MTT assay, MCF-7 cells [2]: 0.05 µM
- TGI (µM), MTT assay, MCF-7 cells [2]: 2.5 µM

B7: peptide 18 (Ac-YLVGNGLRSNNRK-(ε-Pal)), retro-inverso version of peptide 27 (peptide)
peptide: Ac-[dY][dL][dV]G[dN]G[dL][dR][dS][dN][dN][dR][dK](Palmitoyl)
- GI50 (µM), MTT assay, MCF-7 cells [2]: 0.04 µM
- TGI (µM), MTT assay, MCF-7 cells [2]: 0.4 µM

B8: peptide 3 (Pal-HRKRNNSRLGNGVLYASVN-NH2) (peptide)
peptide: Palmitoyl-HRKRNNSRLGNGVLYASVN-NH2
SMILES: CCCCCCCCCCCCCCCC(=O)N[C@@H](Cc1c[nH]cn1)C(=O)N[C@@H](CCCNC(=N)N)C(=O)N[C@@H](CCCCN)C(=O)N[C@@H](CCCNC(=N)N)C(=O)N[C@@H](CC(N)=O)C(=O)N[C@@H](CC(N)=O)C(=O)N[C@@H](CO)C(=O)N[C@@H](CCCNC(=N)N)C(=O)N[C@@H](CC(C)C)C(=O)NCC(=O)N[C@@H](CC(N)=O)C(=O)NCC(=O)N[C@H](C(=O)N[C@@H](CC(C)C)C(=O)N[C@@H](Cc1ccc(O)cc1)C(=O)N[C@@H](C)C(=O)N[C@@H](CO)C(=O)N[C@H](C(=O)N[C@@H](CC(N)=O)C(N)=O)C(C)C)C(C)C
- GI50 (µM), MTT assay, MCF-7 cells [2]: 1 µM
- TGI (µM), MTT assay, MCF-7 cells [2]: 1.55 µM

B9: peptide 4 (Pal-HRKRNNSRLGNGVLYASVNPEYFSAA-NH2) (peptide)
peptide: Palmitoyl-HRKRNNSRLGNGVLYASVNPEYFSAA-NH2
SMILES: CCCCCCCCCCCCCCCC(=O)N[C@@H](Cc1c[nH]cn1)C(=O)N[C@@H](CCCNC(=N)N)C(=O)N[C@@H](CCCCN)C(=O)N[C@@H](CCCNC(=N)N)C(=O)N[C@@H](CC(N)=O)C(=O)N[C@@H](CC(N)=O)C(=O)N[C@@H](CO)C(=O)N[C@@H](CCCNC(=N)N)C(=O)N[C@@H](CC(C)C)C(=O)NCC(=O)N[C@@H](CC(N)=O)C(=O)NCC(=O)N[C@H](C(=O)N[C@@H](CC(C)C)C(=O)N[C@@H](Cc1ccc(O)cc1)C(=O)N[C@@H](C)C(=O)N[C@@H](CO)C(=O)N[C@H](C(=O)N[C@@H](CC(N)=O)C(=O)N1CCC[C@H]1C(=O)N[C@@H](CCC(=O)O)C(=O)N[C@@H](Cc1ccc(O)cc1)C(=O)N[C@@H](Cc1ccccc1)C(=O)N[C@@H](CO)C(=O)N[C@@H](C)C(=O)N[C@@H](C)C(N)=O)C(C)C)C(C)C
- GI50 (µM), MTT assay, MCF-7 cells [2]: 1 µM
- TGI (µM), MTT assay, MCF-7 cells [2]: > 5 µM

B10: peptide 21 (Pal-VSAYLVGNGLRSNNR-NH2) (peptide)
peptide: Palmitoyl-[dV][dS][dA][dY][dL][dV]G[dN]G[dL][dR][dS][dN][dN][dR]-NH2
SMILES: CCCCCCCCCCCCCCCC(=O)N[C@@H](C(=O)N[C@H](CO)C(=O)N[C@H](C)C(=O)N[C@H](Cc1ccc(O)cc1)C(=O)N[C@H](CC(C)C)C(=O)N[C@@H](C(=O)NCC(=O)N[C@H](CC(N)=O)C(=O)NCC(=O)N[C@H](CC(C)C)C(=O)N[C@H](CCCNC(=N)N)C(=O)N[C@H](CO)C(=O)N[C@H](CC(N)=O)C(=O)N[C@H](CC(N)=O)C(=O)N[C@H](CCCNC(=N)N)C(N)=O)C(C)C)C(C)C
- GI50 (µM), MTT assay, MCF-7 cells [2]: 0.04 µM
- TGI (µM), MTT assay, MCF-7 cells [2]: 0.1 µM

B11: peptide 19 (Pal-SRLGNGVLY-NH2) (peptide)
peptide: Palmitoyl-SRLGNGVLY-NH2
SMILES: CCCCCCCCCCCCCCCC(=O)N[C@@H](CO)C(=O)N[C@@H](CCCNC(=N)N)C(=O)N[C@@H](CC(C)C)C(=O)NCC(=O)N[C@@H](CC(N)=O)C(=O)NCC(=O)N[C@H](C(=O)N[C@@H](CC(C)C)C(=O)N[C@@H](Cc1ccc(O)cc1)C(N)=O)C(C)C
- GI50 (µM), MTT assay, MCF-7 cells [2]: 0.15 µM
- TGI (µM), MTT assay, MCF-7 cells [2]: 2 µM

B12: peptide 17 (Pal-NSRLGNGVLY-NH2) (peptide)
peptide: Palmitoyl-NSRLGNGVLY-NH2
SMILES: CCCCCCCCCCCCCCCC(=O)N[C@@H](CC(N)=O)C(=O)N[C@@H](CO)C(=O)N[C@@H](CCCNC(=N)N)C(=O)N[C@@H](CC(C)C)C(=O)NCC(=O)N[C@@H](CC(N)=O)C(=O)NCC(=O)N[C@H](C(=O)N[C@@H](CC(C)C)C(=O)N[C@@H](Cc1ccc(O)cc1)C(N)=O)C(C)C
- GI50 (µM), MTT assay, MCF-7 cells [2]: 0.2 µM
- TGI (µM), MTT assay, MCF-7 cells [2]: 1.5 µM
